Experimental data from the supplement of paper PMC7877785.
± gives the uncertainty stated by the source.

Assay: self-splicing fitness, log relative to wild type (ln ratio); higher = more splicing; Tetrahymena group I intron in knt gene, E. coli kanamycin selection, DiMSum; sequences stand for … in CUCUCU…GGAGGGAAAAGUUAUCAGGCAUGCACCUGGUAGCUAGUCUUUAAACCAAUAGAUUGCAUCGGUUUAAAAGGCAAGACCGUCAAAUUGCGGGAAAGGGGUCAACAGCCGUUCAGUACCAAGUCUCAGGGGAAACUUUGAGAUGGCCUUGCAAAGGGUAUGGUAAUAAGCUGACGGACAUGGUCCUAACCACGCAGCCAAGUCCUAAGUCAACAGAUCUUCUGUUGAUAUGGAUGCAGUUCACAGACUAAAUGUCGGUCGGGGAAGAUGUAUUCUUCUCAUAAGAUAUAGUCGGACCUCUCCUUAAUGGGAGCUAGCGGAUGAAGUGAUGCAACACUGGAGCCGCUGGGAACUAAUUUGUAUGCGAAAGUAUAUUGAUUAGUUUUGGAGUACUCGUGGUCG
Outline: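 Six replicate transformations of E. coli BL21(DE3) with a pET-22b(+) library were grown overnight at 37°C or 30°C. The library randomised all eight P1ex-region intron nucleotides, the intron lying in the knt kanamycin-resistance gene, and plates were LB agar with or without 25 μg/mL kanamycin plus 100 μg/mL carbenicillin, 50 μM IPTG and 0.2% rhamnose. Pooled colonies were amplicon-sequenced on an Illumina HiSeq 2500, and fitness is the DiMSum error-weighted combination of wild-type-normalised replicate fold changes, kanamycin versus none.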

| Sequence | self-splicing fitness (ln) (30 °C) | self-splicing fitness (ln) (37 °C) |
| --- | --- | --- |
| AAGUAGCAAUAUUACGAGAA | -2.44 ± 0.22 | -2.05 ± 0.44 |
| AAGUAGCAAUAUUACGAUCA | -0.93 ± 0.11 | -0.174 ± 0.11 |
| AAGUAGCAAUAUUACGAUUU | 0.429 ± 0.06 | 0.104 ± 0.075 |
| AAGUAGCAAUAUUACGCAAA | – | -1.34 ± 0.31 |
| AAGUAGCAAUAUUACGCCGU | -1.94 ± 0.19 | -0.462 ± 0.19 |
| AAGUAGCAAUAUUACGCGAA | -2.76 ± 0.23 | -0.182 ± 0.18 |
| AAGUAGCAAUAUUACGCUUC | – | -1.41 ± 0.2 |
| AAGUAGCAAUAUUACGGAAA | -2.49 ± 0.3 | -1.84 ± 0.24 |
| AAGUAGCAAUAUUACGGAUA | -2.1 ± 0.17 | -1.66 ± 0.16 |
| AAGUAGCAAUAUUACGGCCC | -0.413 ± 0.17 | -1.15 ± 0.26 |
| AAGUAGCAAUAUUACGGGGC | -3.29 ± 0.3 | -3.4 ± 0.26 |
| AAGUAGCAAUAUUACGGGGU | -3.03 ± 0.15 | -2.53 ± 0.15 |
| AAGUAGCAAUAUUACGGUCC | -1.32 ± 0.17 | -0.239 ± 0.14 |
| AAGUAGCAAUAUUACGGUCG | -2.14 ± 0.13 | -1.03 ± 0.12 |
| AAGUAGCAAUAUUACGUAGA | -3.01 ± 0.18 | -1.45 ± 0.21 |
| AAGUAGCAAUAUUACGUGCC | -0.879 ± 0.087 | -0.766 ± 0.1 |
| AAGUAGCAAUAUUACGUUAG | -3.51 ± 0.23 | -3 ± 0.34 |
| AAGUAGCAAUAUUACGUUCU | -0.514 ± 0.062 | -0.45 ± 0.09 |
| AAGUAGCAAUAUUACGUUGU | -2.95 ± 0.1 | -2.43 ± 0.13 |
| AAUAAGCAAUAUUACGAAGC | -3.57 ± 0.43 | – |
| AAUAAGCAAUAUUACGAGCA | -1.37 ± 0.2 | -0.258 ± 0.2 |
| AAUAAGCAAUAUUACGAUAG | -3.78 ± 0.32 | -2.13 ± 0.24 |
| AAUAAGCAAUAUUACGAUUU | -0.134 ± 0.064 | -0.252 ± 0.074 |
| AAUAAGCAAUAUUACGCACG | -1.06 ± 0.11 | -0.851 ± 0.14 |
| AAUAAGCAAUAUUACGCAUG | -1.16 ± 0.13 | -0.645 ± 0.12 |

| Sequence | self-splicing fitness (ln) (30 °C) | self-splicing fitness (ln) (37 °C) |
| --- | --- | --- |
| AAUAAGCAAUAUUACGCCAU | -2.76 ± 0.14 | -1.75 ± 0.15 |
| AAUAAGCAAUAUUACGCCCU | -0.352 ± 0.12 | 0.525 ± 0.15 |
| AAUAAGCAAUAUUACGGAGA | -2.61 ± 0.3 | -1.76 ± 0.36 |
| AAUAAGCAAUAUUACGGAUC | -0.855 ± 0.087 | -0.124 ± 0.14 |
| AAUAAGCAAUAUUACGGCCU | -0.0966 ± 0.09 | -0.0762 ± 0.13 |
| AAUAAGCAAUAUUACGGGAG | -2.91 ± 0.19 | -2.14 ± 0.14 |
| AAUAAGCAAUAUUACGGGGU | -3.91 ± 0.31 | -3.11 ± 0.23 |
| AAUAAGCAAUAUUACGGUAC | -2.68 ± 0.21 | -1.79 ± 0.14 |
| AAUAAGCAAUAUUACGGUAG | -3.77 ± 0.24 | -1.95 ± 0.21 |
| AAUAAGCAAUAUUACGGUCU | -0.462 ± 0.055 | 0.0374 ± 0.073 |
| AAUAAGCAAUAUUACGGUUG | -2.86 ± 0.12 | -1.97 ± 0.14 |
| AAUAAGCAAUAUUACGGUUU | -0.628 ± 0.064 | -0.165 ± 0.092 |
| AAUAAGCAAUAUUACGUACA | -0.815 ± 0.1 | -0.842 ± 0.11 |
| AAUAAGCAAUAUUACGUCAG | -3.34 ± 0.18 | -1.82 ± 0.13 |
| AAUAAGCAAUAUUACGUGGC | -2.72 ± 0.22 | -2.82 ± 0.36 |
| AAUAAGCAAUAUUACGUUAA | -2.76 ± 0.19 | -0.928 ± 0.13 |
| AAUAAGCAAUAUUACGUUCG | -1.5 ± 0.08 | -0.605 ± 0.095 |
| AAUAAGCAAUAUUACGUUGU | -3.22 ± 0.14 | -2.51 ± 0.19 |
| AAUAAGCAAUAUUACGUUUU | -1.78 ± 0.076 | -1.55 ± 0.12 |
| AAUCAGCAAUAUUACGAACG | -0.399 ± 0.088 | -0.368 ± 0.1 |
| AAUCAGCAAUAUUACGAAGC | -0.428 ± 0.11 | -0.998 ± 0.14 |
| AAUCAGCAAUAUUACGAAGU | -0.414 ± 0.059 | 0.136 ± 0.084 |
| AAUCAGCAAUAUUACGACAU | 0.114 ± 0.011 | 0.208 ± 0.032 |
| AAUCAGCAAUAUUACGACGC | -0.394 ± 0.098 | -0.936 ± 0.11 |
| AAUCAGCAAUAUUACGAGCA | -0.936 ± 0.14 | -0.0653 ± 0.12 |

| Sequence | self-splicing fitness (ln) (30 °C) | self-splicing fitness (ln) (37 °C) |
| --- | --- | --- |
| AAUCAGCAAUAUUACGAGUU | -0.331 ± 0.049 | 0.000416 ± 0.074 |
| AAUCAGCAAUAUUACGCCUG | -0.906 ± 0.17 | 0.165 ± 0.18 |
| AAUCAGCAAUAUUACGCGGA | -0.694 ± 0.076 | -0.555 ± 0.079 |
| AAUCAGCAAUAUUACGCUAU | -0.347 ± 0.084 | 0.0833 ± 0.12 |
| AAUCAGCAAUAUUACGCUUG | -0.11 ± 0.068 | -0.33 ± 0.084 |
| AAUCAGCAAUAUUACGGACU | -0.329 ± 0.1 | -0.697 ± 0.099 |
| AAUCAGCAAUAUUACGGAGA | -0.814 ± 0.085 | -1.04 ± 0.1 |
| AAUCAGCAAUAUUACGGAGU | -0.488 ± 0.047 | 0.346 ± 0.064 |
| AAUCAGCAAUAUUACGGCCG | -0.87 ± 0.12 | 0.00722 ± 0.18 |
| AAUCAGCAAUAUUACGGCUG | -2.34 ± 0.15 | -1.87 ± 0.2 |
| AAUCAGCAAUAUUACGGGGU | -3.02 ± 0.17 | -1.39 ± 0.12 |
| AAUCAGCAAUAUUACGGUCA | 0.236 ± 0.1 | 0.432 ± 0.12 |
| AAUCAGCAAUAUUACGUAAG | -0.572 ± 0.075 | -0.104 ± 0.1 |
| AAUCAGCAAUAUUACGUACG | -0.91 ± 0.056 | -0.149 ± 0.075 |
| AAUCAGCAAUAUUACGUCGA | -0.548 ± 0.095 | 0.0423 ± 0.1 |
| AAUCAGCAAUAUUACGUCUA | -0.491 ± 0.069 | -0.133 ± 0.076 |
| AAUCAGCAAUAUUACGUUAU | -0.401 ± 0.041 | 0.272 ± 0.062 |
| AAUCAGCAAUAUUACGUUUA | -0.652 ± 0.045 | -0.106 ± 0.06 |
| AAUGAGCAAUAUUACGAAAU | -2.14 ± 0.28 | -1.36 ± 0.34 |
| AAUGAGCAAUAUUACGAAGC | -3.08 ± 0.35 | -1.89 ± 0.43 |
| AAUGAGCAAUAUUACGAUGC | -2.44 ± 0.21 | – |
| AAUGAGCAAUAUUACGCCCU | -1.32 ± 0.12 | -1.16 ± 0.17 |
| AAUGAGCAAUAUUACGCGAU | -3.63 ± 0.41 | -0.995 ± 0.22 |
| AAUGAGCAAUAUUACGCGGC | -2.15 ± 0.19 | -2.11 ± 0.24 |
| AAUGAGCAAUAUUACGCGGG | -3.11 ± 0.3 | -2.57 ± 0.25 |

| Sequence | self-splicing fitness (ln) (30 °C) | self-splicing fitness (ln) (37 °C) |
| --- | --- | --- |
| AAUGAGCAAUAUUACGCUAA | -3.1 ± 0.36 | -1.9 ± 0.2 |
| AAUGAGCAAUAUUACGCUCG | -2.31 ± 0.25 | -0.585 ± 0.18 |
| AAUGAGCAAUAUUACGCUGU | -1.84 ± 0.34 | -2.21 ± 0.4 |
| AAUGAGCAAUAUUACGCUUC | – | -1.71 ± 0.23 |
| AAUGAGCAAUAUUACGGAAA | -2.99 ± 0.48 | -1.86 ± 0.31 |
| AAUGAGCAAUAUUACGGACG | -2.44 ± 0.2 | – |
| AAUGAGCAAUAUUACGGAUA | -1.86 ± 0.27 | -1.8 ± 0.37 |
| AAUGAGCAAUAUUACGGAUC | -2.24 ± 0.3 | -0.974 ± 0.3 |
| AAUGAGCAAUAUUACGGCCA | – | 0.411 ± 0.39 |
| AAUGAGCAAUAUUACGGCCU | -1.17 ± 0.17 | -1.47 ± 0.21 |
| AAUGAGCAAUAUUACGGCGC | -1.82 ± 0.089 | -1.09 ± 0.11 |
| AAUGAGCAAUAUUACGGGUC | -2.57 ± 0.37 | – |
| AAUGAGCAAUAUUACGGUCG | -2.26 ± 0.14 | -1.62 ± 0.2 |
| AAUGAGCAAUAUUACGUACG | -3 ± 0.26 | -2.32 ± 0.24 |
| AAUGAGCAAUAUUACGUCCA | -2.41 ± 0.19 | -2.27 ± 0.3 |
| AAUGAGCAAUAUUACGUUAG | -3.2 ± 0.21 | -2.3 ± 0.25 |
| AAUUAGCAAUAUUACGAACU | 0.296 ± 0.1 | 0.321 ± 0.14 |
| AAUUAGCAAUAUUACGACGG | -0.969 ± 0.14 | -0.972 ± 0.25 |
| AAUUAGCAAUAUUACGAUAA | -0.869 ± 0.098 | -0.069 ± 0.14 |
| AAUUAGCAAUAUUACGAUGG | -3.31 ± 0.24 | -0.247 ± 0.17 |
| AAUUAGCAAUAUUACGCACC | -0.701 ± 0.15 | 0.362 ± 0.17 |
| AAUUAGCAAUAUUACGCACU | -0.0585 ± 0.12 | -0.106 ± 0.15 |
